# Patent publication US20240360208A1 (Hoffmann-La Roche, published 2024)
# B1: ABN912//11K2-WT IgG1 (bispecific antibody, V domains shown)
# VH 1: QVQLVQSGAEVKKPGSSVKVSCKASGLTISDTYMHWVRQAPGQGLEWMGRIDPANGNTKFDPKFQGRVTITADTSTSTAYMELSSLRSEDTAVYYCARGVFGFFDYWGQGTTVTVSS
# VL 1: DIQMTQSPSSLSASVGDRVTITCKATEDIYNRLAWYQQKPGKAPKLLISGATSLETGVPSRFSGSGSGTDYTLTISSLQPEDFATYYCQQFWSAPYTFGGGTKVEIK
# VH 2: EVQLVQSGGGLVQPGGSLRLSCAASGFTFSHYWMSWVRQAPGKGLEWLANIEQDGSEKYYVDSVKGRFTISRDNAKNSLYLQMNSLRAEDTAVYFCARDLEGLHGDGYFDLWGRGTLVTVSS
# VL 2: AIQLTQSPSSLSASVGDRVILTCRASQGVSSALAWYQQKPGKAPKLLIYDASSLESGVPSRFSGSGSGPDFTLTISSLQPEDFATYFCQQFNSYPLTFGGGTKVEIK
# notes: CrossMab, wild type IgG1 with knobs-into-holes; crossed arm humanized 11K2, non-crossed arm ABN912; also called CCL2-0047; P1AA3447
# B2: 11K2//2F6-WT IgG1 (bispecific antibody, V domains shown)
# VH 1: B1 VH 1
# VL 1: B1 VL 1
# VH 2: QSLEESGGGLVQPEGSLTLTCTASGFSFNNNYYMCWVRQAPGKGLEWIGCISTDDSNTHYASWAQGRFTISKASSTALTLQVAGLTVADMATYFCARDAHFTSYGYGFDLWGPGTLVTVSS
# VL 2: DIVMTQTPASVSAAVGGTVSINCRASEDIENLVAWYQQKPGQPPKLLIYQASKLASGVPSRFKGSGSGAEFTLTIGDLESADAATYYCQGDYGSGWIMYSFGGGTDLVVK
# notes: CrossMab, wild type IgG1 with knobs-into-holes; crossed arm humanized 11K2, non-crossed arm 2F6; also called CCL2-0056; P1AA3392
# B3: ABN912//11K2-PGLALA (bispecific antibody, V domains shown)
# VH 1: B1 VH 1
# VL 1: B1 VL 1
# VH 2: B1 VH 2
# VL 2: B1 VL 2
# notes: CrossMab, IgG1 with L234A, L235A, P329G, knobs-into-holes; VH/VL-crossed arm humanized 11K2, non-crossed arm ABN912; also called CCL2-0041; P1AA3411
# B4: 11K2//2F6-PGLALA (bispecific antibody, V domains shown)
# VH 1: B1 VH 1
# VL 1: B1 VL 1
# VH 2: B2 VH 2
# VL 2: B2 VL 2
# notes: CrossMab, IgG1 with L234A, L235A, P329G, knobs-into-holes; crossed arm humanized 11K2, non-crossed arm 2F6; also called CCL2-0053; P1AA3450
# B5: 1A5//1G9-PGLALA (bispecific antibody, V domains shown)
# VH 1: QEQLVESGGDLVKPEGSLTLTCTASGFSFSTSYWMCWVRQAPGKGLELIACISSSIGVTYYASWAEGRFTISKTSSTTVTLQMTSLTVADTATYFCARTTDDNWNVGFNLWGPGTLVTVSS
# VL 1: AYDMTQTPASVEVGVGGTVTIKCQASQSIGNRYLSWYQQKPGQPPKLLIYGTSTLASGVSSRFKGSGSGTQFTLTISGVESADSATYYCQQGATISYLDNAFGGGTEVVVK
# VH 2: QSLEESGGDLVKPGASLTLTCKASGIDFSLYSYMCWVRQAPGKGLEWIACVDAGASGSTYYASWAKGRFTISKTSSTTVTLQMTSLTAADTATYFCARGILYYTWPYPAGAIDAFDSWGPGTLVTVSS
# VL 2: AYDMTQTPASVSEPVGGTVTIKCQASESISNYLSWYQQKPGQPPKLLIYKASTLASGVPSRFKGSGSGTEYTVTISGVQSDDAATYYCQQSYSSSNVFNTFGGGTEVVVK
# notes: CrossMab, IgG1 with L234A, L235A, P329G, knobs-into-holes; crossed arm 1A5, non-crossed arm 1G9; also called CCL2-0046; P1AA3444
# B6: 1A5//1G9-WT IgG1 (bispecific antibody, V domains shown)
# VH 1: B5 VH 1
# VL 1: B5 VL 1
# VH 2: B5 VH 2
# VL 2: B5 VL 2
# notes: CrossMab, wild type IgG1 with knobs-into-holes; crossed arm 1A5, non-crossed arm 1G9; also called CCL2-0052; P1AA3446
# B7: 1A5//2F6-PGLALA (bispecific antibody, V domains shown)
# VH 1: B5 VH 1
# VL 1: B5 VL 1
# VH 2: B2 VH 2
# VL 2: B2 VL 2
# notes: CrossMab, IgG1 with L234A, L235A, P329G, knobs-into-holes; crossed arm 1A5, non-crossed arm 2F6; also called CCL2-0055; P1AA3402
# B8: 11K2//1G9-WT IgG1 (bispecific antibody, V domains shown)
# VH 1: B1 VH 1
# VL 1: B1 VL 1
# VH 2: B5 VH 2
# VL 2: B5 VL 2
# notes: CrossMab, wild type IgG1 with knobs-into-holes; crossed arm humanized 11K2, non-crossed arm 1G9; also called CCL2-0049; P1AA3461
# B9: 1A5//2F6-WT IgG1 (bispecific antibody, V domains shown)
# VH 1: B5 VH 1
# VL 1: B5 VL 1
# VH 2: B2 VH 2
# VL 2: B2 VL 2
# notes: CrossMab, wild type IgG1 with knobs-into-holes; crossed arm 1A5, non-crossed arm 2F6; also called CCL2-0058; P1AA3427
# B10: CKLO2-GG02 (=P1AF8139) (bispecific antibody)
# heavy 1: DIQMTQSPSSLSASVGDRVTITCKAFEDIYNRRAWYQQKPGKAPKLLIHGATSLEHGVPSRFSGSGSGTDYTLTISSLQPEDFATYYCQQFWSAPYTFGGGTKVEIKSSASTKGPSVFPLAPSSKSTSGGTAALGCLVKDYFPEPVTVSWNSGALTSGVHTFPAVLQSSGLYSLSSVVTVPSSSLGTQTYICNVNHKPSNTKVDKKVEPKSCDKTHTCPPCPAPEYLGGDSVFLFPPKPKDVLMISRTPEVTCVVIDVSHEDPEVKFNWYVDGVEVHNAKTKPREEQYNSTYRVVSVLPVLHRDWLNGKEYKCKVSNKALPKPIEKTISKAKGQRREPQVYTLPPCRDELTKNQVSLWCLVKGFYPSDIAVEWESNGQPENNYKTTPPVLDSDGSFFLYSKLTVDKSRWQQGNVFSCSVLHEALHAHTTRKELSLSP
# heavy 2: not shown
# light 1: QVQLVQSGAEVKKPGSSVKVSCKASGLTISHTYMHWVRQAPGQGLEWMGRIDPDNHNTKFDPKFQGRVTITADTSTSTAYMELSSLRSEDTAVYYCARGVFGFFEHWGQGTTVTVSSASVAAPSVFIFPPSDEQLKSGTASVVCLLNNFYPREAKVQWKVDNALQSGNSQESVTEQDSKDSTYSLSSTLTLSKADYEKHKVYACEVTHQGLSSPVTKSFNRGEC
# light 2: EIVLTQSPATLSLSPGERATLSCRASQHVSDAYLAWYQQKPGQAPRLLIYDASDRAEGVPARFSGSGSGTDFTLTISSLEPEDFAVYYCHQYIHLHSFTFGQGTKVEIKRTVAAPSVFIFPPSDRKLKSGTASVVCLLNNFYPREAKVQWKVDNALQSGNSQESVTEQDSKDSTYSLSSTLTLSKADYEKHKVYACEVTHQGLSSPVTKSFNRGEC
# B11: P1AF8143 (CKLO2-CB-GG02) (bispecific antibody)
# chain 1: not shown
# chain 2: QVQLVQSGAEVKKPGSSVKVSCKASGLTISHTYMHWVRQAPGQGLEWMGRIDPDNHNTKFDPKFQGRVTITADTSTSTAYMELSSLRSEDTAVYYCARGVFGFFEHWGQGTTVTVSSASTKGPSVFPLAPSSKSTSGGTAALGCLVKDYFPEPVTVSWNSGALTSGVHTFPAVLQSSGLYSLSSVVTVPSSSLGTQTYICNVNHKPSNTKVDKKVEPKSCGGSGGGGSGGDKTHTCPPCPAPEYLGGDSVFLFPPKPKDVLMISRTPEVTCVVIDVSHEDPEVKFNWYVDGVEVHNAKTKPREEQYNSTYRVVSVLPVLHRDWLNGKEYKCKVSNKALPKPIEKTISKAKGQRREPQVYTLPPCRDELTKNQVSLWCLVKGFYPSDIAVEWESNGQPENNYKTTPPVLDSDGSFFLYSKLTVDKSRWQQGNVFSCSVLHEALHAHTTRKELSLSPGKGGSGGGGSGGDIQMTQSPSSLSASVGDRVTITCKAFEDIYNRRAWYQQKPGKAPKLLIHGATSLEHGVPSRFSGSGSGTDYTLTISSLQPEDFATYYCQQFWSAPYTFGGGTKVEIKRTVAAPSVFIFPPSDEQLKSGTASVVCLLNNFYPREAKVQWKVDNALQSGNSQESVTEQDSKDSTYSLSSTLTLSKADYEKHKVYACEVTHQGLSSPVTKSFNRGEC
# Key:
# [1] = molecular target: T1, human CCL2 (MCP1) - wild type (wt) (human, UniProt P13500 24-99); test: SPR, C1 chip, anti-human Fc capture, 25 C, pH 7.4, Langmuir 1:1
# T1 construct: Made in-house or bought (R&D Systems 279-MC), depending on the assay; can form dimers; also called wt human CCL2; WT human CCL2
# Description: The sample and system buffer was PBS-T (10 mM phosphate buffered saline including 0.05% Tween20) pH 7.4. The flow cell was set to 25° C.—and the sample block set to 12° C.—and primed with running buffer twice. The bispecific antibody was captured by injecting a 2 μg/ml solution for 60 see at a flow rate of 10 μl/min. Association was measured by injection of human CCL2 (wt) in various concentrations in solution for 150 see at a flow rate of 30 μl/min starting with 30 nM in 1:10 dilutions. The dissociation phase was monitored for up to 1200 sec and triggered by switching from the sample solution to running buffer. […] Bulk refractive index differences were corrected by subtracting the response obtained from a goat anti human IgG Fc surface. Blank injections are also subtracted (=double referencing). For calculation of kinetic parameters, the Langmuir 1:1 model was used.
# [2] = molecular target: T2, human FcγRIIb receptor on CHO-K1 cells (clone 223) (human, UniProt P31994 43-310); test: cell-based or functional assay
# T2 sequence (looked up): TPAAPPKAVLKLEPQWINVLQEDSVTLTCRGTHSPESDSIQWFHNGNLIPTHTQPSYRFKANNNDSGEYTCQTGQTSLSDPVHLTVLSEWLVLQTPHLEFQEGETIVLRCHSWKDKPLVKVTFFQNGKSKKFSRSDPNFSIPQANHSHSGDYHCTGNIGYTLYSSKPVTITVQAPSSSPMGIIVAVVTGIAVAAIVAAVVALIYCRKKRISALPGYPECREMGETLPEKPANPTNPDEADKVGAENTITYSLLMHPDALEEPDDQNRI
Binder,binding result [1],also measured
B1,binds,
B2,binds,
B3,binds,
B4,binds,
B5,binds,
B6,binds,
B7,binds,
B8,binds,
B9,binds,
B10,,Depletion level max (%) of CCL2 from the supernatant [2]: 45%; EC50 [nM] of CCL2 depletion [2]: 0.6 nM; EC90 [nM] of CCL2 depletion [2]: ~30 nM
B11,,Depletion level max (%) of CCL2 from the supernatant [2]: 82%; EC50 [nM] of CCL2 depletion [2]: 0.14 nM; EC90 [nM] of CCL2 depletion [2]: 0.4 nM
